Test results: publication PMC6626918 (Frontiers in Microbiology, 2019)

Key:
[1] = target: Alkyl hydroperoxide reductase subunit C (AhpC) of Burkholderia thailandensis E264, GST-tagged (Burkholderia thailandensis E264) (UniProt Q2SWT3)
AhpC (BthAhpC) = target: T1, AhpC (BthAhpC) (Burkholderia thailandensis, UniProt Q2SWT3); conditions: read-out: Systems / AhpD / Km
T1 construct: gene BTH_I2092

“Thioredoxin C (TrxC) of Burkholderia thailandensis E264 (enzyme)” was tested. Which Km of AhpC peroxidase activity for TrxC (NADPH consumption at 340 nm; TrxC varied 0-500 μM, 1 μM AhpC, 1 mM CHP, TrxR system) [1] did it give?
The Km of AhpC peroxidase activity for TrxC (NADPH consumption at 340 nm; TrxC varied 0-500 μM, 1 μM AhpC, 1 mM CHP, TrxR system) was 147 µM.

And the Km of AhpC peroxidase activity for TrxC (NADPH consumption at 340 nm; TrxC varied 0-500 μM, 1 μM AhpC, 1 mM H2O2, TrxR system) [1]?
The Km of AhpC peroxidase activity for TrxC (NADPH consumption at 340 nm; TrxC varied 0-500 μM, 1 μM AhpC, 1 mM H2O2, TrxR system) was 348 µM.

What about the Km of AhpC peroxidase activity for TrxC (NADPH consumption at 340 nm; TrxC varied 0-500 μM, 1 μM AhpC, 1 mM t-BOOH, TrxR system) [1] of the same molecule?
The Km of AhpC peroxidase activity for TrxC (NADPH consumption at 340 nm; TrxC varied 0-500 μM, 1 μM AhpC, 1 mM t-BOOH, TrxR system) was 202 µM.

`CC(C)(C)OO` [t-BOOH] was tested. Which Km (AhpC (BthAhpC)) did it give?
Its Km is 60.1 ± 1.8 µM.

`CC(C)(OO)c1ccccc1` [CHP] was tested. Which Km (AhpC (BthAhpC)) did it give?
Its Km is 57.6 ± 1.2 µM.
